The source of these data is patent US20230265185A1 (NATIONAL RESEARCH COUNCIL OF CANADA, published 2023).

In test [1] the target is T1, hCD22 fragment Bin 6, IVR6 (aa476-575), displayed on yeast cells (human, UniProt P20273 495-594).
T1 construct: range 476-575; Range is counted on the mature ECD, not on the UniProt entry; on P20273 it would be 495-594 (my arithmetic); also called CD22 Sub-Domain 6; not shown: Aga2-HA display fusion partner of vector pPNL6; MYC tag
T1 sequence (looked up): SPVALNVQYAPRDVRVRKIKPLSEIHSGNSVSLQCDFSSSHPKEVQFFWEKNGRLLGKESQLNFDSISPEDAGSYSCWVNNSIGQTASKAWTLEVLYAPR
Kind of test: yeast display cell ELISA. As to the method:
(§1) The YSD vector (pPNL6) was from The Pacific Northwest National Laboratory, USA. […] The HRP activity was assayed with substrate TMB (tetramethyl benzidine) according to the manufacture’s conditions and read at OD₄₅₀.
(§2) The wells that gave rise to OD₄₅₀ above 0.25 were highlighted, indicating significant antibody-antigen interactions. All the sdAbs tested except hCd22_1ug-14 were assigned to specific Bin(s).
(In general: In an ELISA, binding on a coated surface is turned into a signal by an enzyme label.)

In test [2] the target is T2, hCD22 fragment Bin 7, IVR7 (aa561-668), displayed on yeast cells (human, UniProt P20273 580-687).
T2 construct: range 561-668; Range is counted on the mature ECD, not on the UniProt entry; on P20273 it would be 580-687 (my arithmetic); also called CD22 Sub-Domain 7; not shown: Aga2-HA display fusion partner of vector pPNL6; MYC tag
T2 sequence (looked up): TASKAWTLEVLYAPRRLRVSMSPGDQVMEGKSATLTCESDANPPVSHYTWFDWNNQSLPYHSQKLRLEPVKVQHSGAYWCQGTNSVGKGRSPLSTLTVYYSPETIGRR
Kind of test: yeast display cell ELISA, native cells. As to the method:
as §1
(§3) Table 7 depicts the assessment of the nature of the epitopes of CD22 sdAbs to determine if the epitopes for the sdAbs are continuous (linear) or non-continuous (conformational). […] The binding of each sdAb to native and denatured CD22 fragments was measured as OD₄₅₀, and the ratio of the binding to denatured CD22 to non-denatured CD22 was calculated, with the ratio ≥ 0.5 indicative linear (L), and the ratio < 0.5 indicative of conformational (C) epitopes.

Test [3] has as its target T1, hCD22 fragment Bin 6, IVR6 (aa476-575), …. The experiment in a line: yeast display cell ELISA, native cells. As to the method: as §1, §3
Test [4] concerns the target T3, full-length hCD22-ECD (668aa) displayed on yeast cells (human, UniProt P20273 20-687).
T3 construct: extracellular domain; Yeast surface display fusion Aga2-HA-(insert)-MYC; also called Bin 8; CD22-ECD Full lenght; not shown: Aga2-HA display fusion partner of vector pPNL6; MYC tag
T3 sequence (looked up): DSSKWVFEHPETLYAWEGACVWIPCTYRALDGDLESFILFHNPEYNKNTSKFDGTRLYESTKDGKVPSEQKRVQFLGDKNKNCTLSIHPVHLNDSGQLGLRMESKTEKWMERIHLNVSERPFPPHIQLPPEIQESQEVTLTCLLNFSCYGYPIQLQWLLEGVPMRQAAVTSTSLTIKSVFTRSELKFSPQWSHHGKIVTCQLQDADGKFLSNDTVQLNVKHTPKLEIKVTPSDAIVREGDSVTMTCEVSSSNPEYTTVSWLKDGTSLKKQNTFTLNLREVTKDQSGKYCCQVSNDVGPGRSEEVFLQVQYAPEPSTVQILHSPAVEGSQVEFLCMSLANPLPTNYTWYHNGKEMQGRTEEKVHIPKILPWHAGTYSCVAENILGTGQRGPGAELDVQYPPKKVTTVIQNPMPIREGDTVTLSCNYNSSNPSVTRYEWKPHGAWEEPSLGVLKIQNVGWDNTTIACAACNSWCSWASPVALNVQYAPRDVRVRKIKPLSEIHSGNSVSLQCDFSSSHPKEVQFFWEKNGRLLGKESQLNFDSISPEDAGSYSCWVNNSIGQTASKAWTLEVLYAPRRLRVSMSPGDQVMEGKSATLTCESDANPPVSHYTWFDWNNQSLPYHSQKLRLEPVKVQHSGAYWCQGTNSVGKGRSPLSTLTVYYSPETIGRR
The experiment in a line: yeast display cell ELISA, heat denatured cells (80 C, 30 min). As for the experimental part:
as §1, §3

The target in test [5] is T4, hCD22 fragment Bin 4, IVR4 (aa303-405), displayed on yeast cells (human, UniProt P20273 322-424).
T4 construct: Range is counted on the mature ECD, not on the UniProt entry; on P20273 it would be 322-424 (my arithmetic); also called CD22 Sub-Domain 4; not shown: Aga2-HA display fusion partner of vector pPNL6; MYC tag
T4 sequence (looked up): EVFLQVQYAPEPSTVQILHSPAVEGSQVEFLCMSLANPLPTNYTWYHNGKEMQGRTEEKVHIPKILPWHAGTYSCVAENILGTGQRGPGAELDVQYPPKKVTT
The description is as above. As to the method:
as §1, §3

Test [6] concerns the target T4, hCD22 fragment Bin 4, IVR4 (aa303-405), …. The experiment in a line: yeast display cell ELISA, biotinylated sdAb 250 nM. As to the method: as §1, §2
The target is the same in test [7]. The experiment in a line: yeast display cell ELISA, OD on denatured over non-denatured CD22 fragment. As for the experimental part: as §1, §3
Test [8] has as its target T5, hCD22 fragment Bin 1, IVR1 (aa1-135), displayed on yeast cells (human, UniProt P20273 20-154).
T5 construct: range 1-135; Range is counted on the mature ECD, not on the UniProt entry; on P20273 it would be 20-154 (my arithmetic); also called CD22 Sub-Domain 1; not shown: Aga2-HA display fusion partner of vector pPNL6; MYC tag
T5 sequence (looked up): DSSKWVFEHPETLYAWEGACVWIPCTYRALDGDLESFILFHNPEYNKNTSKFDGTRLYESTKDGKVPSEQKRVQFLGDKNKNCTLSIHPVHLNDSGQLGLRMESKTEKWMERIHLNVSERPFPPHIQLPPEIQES
Kind of test: yeast display cell ELISA, heat denatured cells (80 C, 30 min). As for the experimental part:
as §1, §3

Test [9] has as its target T5, hCD22 fragment Bin 1, IVR1 (aa1-135), …. Kind of test: yeast display cell ELISA, biotinylated sdAb 250 nM. As to the method: as §1, §2
Test [10] shares this target. The experiment in a line: yeast display cell ELISA, OD on denatured over non-denatured CD22 fragment. As to the method:
as §1, §3

B1: hCD221ug-61 (VHH)
VHH: QVQLVESGGGLVQAGGSLRLSCAASMSSFSQYVMYWYRQAPGKQRELVATITSYSNTNYADSVKGRFTISRDNAKSIAYLQMDSLKPEDTAVYYCNAQYGSTFIRNHWDDWGQGTQVTVSS
modifications: single biotin at the VHH C-terminal (biotinylation signal sequence)
notes: llama VHH, expressed in E. coli TG1, IMAC purified, monomeric SEC fraction; also called VHH # 14; 3-hCD22 1ug-61
On to B1, for which the binding result in test [1] is reported as “no binding (tested: OD450 not above 0.25; sdAb 250 nM)”. In addition, the “Non denatured CD22 OD” value in [2] is 3.5 OD450.

B2: hCD221ug-36 (VHH)
VHH: EVQLVDSGGGLVQAGGSLRVSCEASGITFSRAAMGWYRQRPGKERERVAVVNSDSSTIYADSVKGRFTISRDNAKNTVYLQMNSLEPEDTAVYYCWSPGFGSYWGQGTQVTVSS
modifications: single biotin at the VHH C-terminal (biotinylation signal sequence)
notes: llama VHH, expressed in E. coli TG1, IMAC purified, monomeric SEC fraction; also called VHH # 22; 4-hCD22 1ug-36
Take B2: the “Non denatured CD22 OD” value in test [3] was 3.5 OD450.

B3: hCD22pas-32 (VHH)
VHH: QVQLVESGGGLVQAGGSLRLSCAVSGRIFRSYVLGWFRQAPGKERELVARIGWSDTYYADSVKGRFTISRDNAKNTVDLQMNSLKPEDTAVYYCAANSPPYGPQRDEFGYWGQGTQVTVSS
modifications: single biotin at the VHH C-terminal (biotinylation signal sequence)
notes: llama VHH, expressed in E. coli TG1, IMAC purified, monomeric SEC fraction; also called VHH # 15; 6-hCD22 pas-32
Turning to B3, the “Heat Inactivated CD22 OD” value in test [4] was determined as 0 OD450.

B4: hCD22pas-64 (VHH)
VHH: QVQLVESGGGLVQAGGSLRLSCAASGSTFSLNTMAWYRQAPGNQREYVAAASSDGYTNYADSVRGRFTISRDNDKNTMYLQMNSLRPEDTAVYYCTWGTGRFADYIYWGQGTQVTVSS
modifications: single biotin at the VHH C-terminal (biotinylation signal sequence)
notes: llama VHH, expressed in E. coli TG1, IMAC purified, monomeric SEC fraction; also called VHH # 25; 7-hCD22 pas-64
With B4, in test [3], the “Non denatured CD22 OD” value came out at 2.98 OD450.

B5: hCD221ug-10 (VHH)
VHH: QVQLVESGGGLVQAGGSLSVSCTASESTFSIMMGWFRQAPGKQREMVAVINSAGSTNYADSAEGRFTISRDLAKKTVSLQMNSLKPEDTAVYYCYVDGYFGQGTQVTVSS
modifications: single biotin at the VHH C-terminal (biotinylation signal sequence)
notes: llama VHH, expressed in E. coli TG1, IMAC purified, monomeric SEC fraction; also called VHH # 23; 5-hCD22 1ug-10
Take B5: in [1], the binding result is recorded as “no binding (tested: OD450 not above 0.25; sdAb 250 nM)”. Further, in [2], the “Non denatured CD22 OD” value was determined as 3.5 OD450.

B6: hCD221ug-13 (VHH)
VHH: QVQLVESGGGLVQAGDSLRLSCAGSGGSFSSVTMAWFRQAPGKDREFVAAITWSSPSTYYADSVKGRFTISRDNAKNTVYLQMNSLKPEDTAVYYCAGGRTGRGTSADTDEYNYWGQGTQVTVSS
modifications: single biotin at the VHH C-terminal (biotinylation signal sequence)
notes: llama VHH, expressed in E. coli TG1, IMAC purified, monomeric SEC fraction; also called VHH # 21; 1-hCD22 1ug-13
In the case of B6, the “Heat Inactivated CD22 OD” value in test [5] was determined as 0.686 OD450. In addition, the OD450 in test [6] turned out to be 0.752 OD450. In test [3], the “Non denatured CD22 OD” value is 0.453 OD450. Further, the “CD22 Ratio (D/ND)” value in [7] is 0.557.

B7: hCD221ug-80 (VHH)
VHH: QVQLVESGGGLVQPGGSLRLSCTFSGFTLDYYVMVWFRQAPGKEREAVSCITSDGVTYYADSVKGRFTISRDNAKNTVYLQMNRVKPEDTAVYYCAVDKPFYDGGIQYTCPVDFDSWGQGAQVTVSS
modifications: single biotin at the VHH C-terminal (biotinylation signal sequence)
notes: llama VHH, expressed in E. coli TG1, IMAC purified, monomeric SEC fraction; also called VHH # 1; 2-hCD22 1ug-80
Turning to B7, the “Heat Inactivated CD22 OD” value in test [8] worked out at 1.77 OD450. Moreover, the OD450 in test [9] turned out to be 2.03 OD450. In addition, the “Non denatured CD22 OD” value in [3] was 2.57 OD450. Besides, the “CD22 Ratio (D/ND)” value in test [10] was determined as 0.762.

B8: hCD22pas-24 (VHH)
VHH: QVQLVESGGGLVQAGGSLRLSCSASGITSSINSMGWHRQAPGKQRELVASIGRGGSGSTKYADSGKGRFLISRDNNKNILFLEMNSLKPEDTADYYCLEVTTDLSSYWGRGTQVTVSS
modifications: single biotin at the VHH C-terminal (biotinylation signal sequence)
notes: llama VHH, expressed in E. coli TG1, IMAC purified, monomeric SEC fraction; also called VHH # 26; 8-hCD22 pas-24
On to B8, for which the “Non denatured CD22 OD” value in test [2] was found to be 3.5 OD450.
